From PMC10303457 (2023)
No end group written: not given here.

T1: Human IMPα3 aa 64–521 (lacking the IMPβ binding domain) (human, UniProt O00629 64-521)
T1 chain: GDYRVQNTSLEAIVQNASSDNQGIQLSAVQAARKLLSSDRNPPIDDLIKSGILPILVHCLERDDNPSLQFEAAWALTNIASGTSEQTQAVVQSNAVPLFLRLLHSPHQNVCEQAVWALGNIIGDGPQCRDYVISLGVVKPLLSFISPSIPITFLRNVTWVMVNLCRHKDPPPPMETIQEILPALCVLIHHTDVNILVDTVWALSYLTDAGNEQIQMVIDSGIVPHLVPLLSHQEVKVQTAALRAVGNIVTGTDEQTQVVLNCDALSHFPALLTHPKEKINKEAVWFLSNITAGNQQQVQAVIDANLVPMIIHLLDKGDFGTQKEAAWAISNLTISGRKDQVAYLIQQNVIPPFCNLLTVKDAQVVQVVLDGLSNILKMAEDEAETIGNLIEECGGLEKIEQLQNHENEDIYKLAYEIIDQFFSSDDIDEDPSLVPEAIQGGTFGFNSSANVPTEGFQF


Assays:
Test in all cases: FP
[1] = target: Human IMPα1 aa 71–529 (lacking the IMPβ binding domain) (human, UniProt P52292 71-529)
[2] = target: Human IMPα5 aa 74–538 (lacking the IMPβ binding domain) (human, UniProt P52294 74-538)
Chain of Human IMPα5 aa 74–538 (lacking the IMPβ binding domain) (P52294 74-538): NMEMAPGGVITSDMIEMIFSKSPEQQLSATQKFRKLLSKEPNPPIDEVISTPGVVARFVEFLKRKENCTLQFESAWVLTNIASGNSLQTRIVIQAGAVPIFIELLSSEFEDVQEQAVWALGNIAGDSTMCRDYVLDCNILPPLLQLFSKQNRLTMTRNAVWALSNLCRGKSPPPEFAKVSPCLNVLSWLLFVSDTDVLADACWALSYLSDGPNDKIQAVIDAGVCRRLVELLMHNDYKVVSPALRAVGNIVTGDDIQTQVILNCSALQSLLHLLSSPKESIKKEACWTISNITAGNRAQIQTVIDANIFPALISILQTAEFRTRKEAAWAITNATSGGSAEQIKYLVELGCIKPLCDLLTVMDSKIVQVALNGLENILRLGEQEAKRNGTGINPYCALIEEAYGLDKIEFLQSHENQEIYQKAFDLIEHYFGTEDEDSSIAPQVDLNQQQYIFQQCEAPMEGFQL

[3] = target: T1, Human IMPα3 aa 64–521 (lacking the IMPβ …)

Row | Binder | Kd [1] [nM] | Kd [2] [nM] | Kd [3] [nM]
1 | SGKRKKIRTIAAYPLGVGKS (also: FITC-labelled, site not given here) [FITC-labelled HeV M NLS1 peptide] | 560 | 1470 | 2470
2 | VRRAGKYYSVEYCKRKID (also: FITC-labelled, site not given here) [FITC-labelled HeV M NLS2 peptide] |  |  | 11500
